Reference: paper PMC12739106, “Phosphate deficiency reduces nodule formation through a phosphate starvation response-like protein in Phaseolus vulgaris”

T1: PvPHR-L7 (formerly PvPHR1) (Phaseolus vulgaris, UniProt B4YEQ7 1-327)
T1 sequence: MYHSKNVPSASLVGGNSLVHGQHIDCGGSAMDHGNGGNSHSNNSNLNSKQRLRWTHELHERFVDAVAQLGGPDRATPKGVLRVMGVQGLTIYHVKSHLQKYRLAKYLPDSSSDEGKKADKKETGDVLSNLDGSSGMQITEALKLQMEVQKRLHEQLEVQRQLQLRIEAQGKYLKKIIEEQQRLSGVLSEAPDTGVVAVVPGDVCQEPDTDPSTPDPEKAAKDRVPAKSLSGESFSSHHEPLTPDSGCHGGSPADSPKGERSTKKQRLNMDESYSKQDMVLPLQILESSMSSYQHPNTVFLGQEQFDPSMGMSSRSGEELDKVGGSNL

B1: PvTML promoter P1BS probe (dsDNA)
DNA 1: GAAATTAATATAAAAAGCATATACTAAAATTAAGCATATGTT
DNA 2: AACATATGCTTAATTTTAGTATATGCTTTTTATATTAATTTC
B2: PvNIN promoter P1BS probe (dsDNA)
DNA 1: CAATTTCATTCTATAGCATATGCAACATTTTAGACAAAATCA
DNA 2: TGATTTTGTCTAAAATGTTGCATATGCTATAGAATGAAATTG

Target: T1, PvPHR-L7 (formerly PvPHR1)
Test: EMSA; poly(dI-dC); outcompeted by unlabeled same-sequence probe (50, 100 or 200 nM); LightShift Chemiluminescent EMSA kit, 1x binding buffer, 50 ng/ul poly(dI-dC), 1 unit protein, 0.1 'mmol' biotin probe, unlabeled competitor 5, 10, 20 'mmol' (legend: 50, 100, 200 nM); salt, pH and temperature not stated
Details: protein: recombinant; tags: His (pDEST17, N-terminal); chain copies: 2; 5' implied by name; blunt

Row | Binder | binding result
1 | B1 | binds
2 | B2 | binds
